{"source": "paper PMC4357726", "binders": {"B1": {"name": "tRNAHis(GUG) transcript (TttRNAHis) (structured_RNA)", "RNA": "GGUGAGCGUAGCUCAGCUGGUAGACCACCGGACUGAGAUCCGGGGGUCGUGGGUUCAAGUCCCAUCGCUCACCCCA"}}, "target": "T1, TtHisRS (histidyl-tRNA synthetase) (Thermus thermophilus HB27 (ATCC …, UniProt P62374 1-421))", "T1 sequence": "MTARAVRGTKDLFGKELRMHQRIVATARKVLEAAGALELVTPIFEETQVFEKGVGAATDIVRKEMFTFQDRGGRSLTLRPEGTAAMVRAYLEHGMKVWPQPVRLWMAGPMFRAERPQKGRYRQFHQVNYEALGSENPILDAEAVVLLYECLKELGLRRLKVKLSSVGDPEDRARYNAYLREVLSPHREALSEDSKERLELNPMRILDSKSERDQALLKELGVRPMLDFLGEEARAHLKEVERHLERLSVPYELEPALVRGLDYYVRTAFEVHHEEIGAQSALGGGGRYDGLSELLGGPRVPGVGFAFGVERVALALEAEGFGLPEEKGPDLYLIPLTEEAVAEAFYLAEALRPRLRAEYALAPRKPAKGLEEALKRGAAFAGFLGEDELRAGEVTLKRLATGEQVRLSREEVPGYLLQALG", "assay": "X-ray crystallography"}
{"binder": "B1", "values": [{"measurement": "binding result", "value": "binds"}]}
